B1: sp¦P00505¦AATM_HUMAN (protein, UniProt P00505 30-430, looked up)
Aspartate aminotransferase, …: SSWWTHVEMGPPDPILGVTEAFKRDTNSKKMNLGVGAYRDDNGKPYVLPSVRKAEAQIAAKNLDKEYLPIGGLAEFCKASAELALGENSEVLKSGRFVTVQTISGTGALRIGASFLQRFFKFSRDVFLPKPTWGNHTPIFRDAGMQLQGYRYYDPKTCGFDFTGAVEDISKIPEQSVLLLHACAHNPTGVDPRPEQWKEIATVVKKRNLFAFFDMAYQGFASGDGDKDAWAVRHFIEQGINVCLCQSYAKNMGLYGERVGAFTMVCKDADEAKRVESQLKILIRPMYSNPPLNGARIAAAILNTPDLRKQWLQEVKVMADRIIGMRTQLVSNLKKEGSTHNWQHITDQIGMFCFTGLKPEQVERLIKEFSIYMTKDGRISVAGVTSSNVGYLAHAIHQVTK
B2: sp¦Q9NVP1¦DDX18_HUMAN (protein, UniProt Q9NVP1 1-670, looked up)
ATP-dependent RNA helicase …: MSHLPMKLLRKKIEKRNLKLRQRNLKFQGASNLTLSETQNGDVSEETMGSRKVKKSKQKPMNVGLSETQNGGMSQEAVGNIKVTKSPQKSTVLTNGEAAMQSSNSESKKKKKKKRKMVNDAEPDTKKAKTENKGKSEEESAETTKETENNVEKPDNDEDESEVPSLPLGLTGAFEDTSFASLCNLVNENTLKAIKEMGFTNMTEIQHKSIRPLLEGRDLLAAAKTGSGKTLAFLIPAVELIVKLRFMPRNGTGVLILSPTRELAMQTFGVLKELMTHHVHTYGLIMGGSNRSAEAQKLGNGINIIVATPGRLLDHMQNTPGFMYKNLQCLVIDEADRILDVGFEEELKQIIKLLPTRRQTMLFSATQTRKVEDLARISLKKEPLYVGVDDDKANATVDGLEQGYVVCPSEKRFLLLFTFLKKNRKKKLMVFFSSCMSVKYHYELLNYIDLPVLAIHGKQKQNKRTTTFFQFCNADSGTLLCTDVAARGLDIPEVDWIVQYDPPDDPKEYIHRVGRTARGLNGRGHALLILRPEELGFLRYLKQSKVPLSEFDFSWSKISDIQSQLEKLIEKNYFLHKSAQEAYKSYIRAYDSHSLKQIFNVNNLNLPQVALSFGFKVPPFVDLNVNSNEGKQKKRGGGGGFGYQKTKKVEKSKIFKHISKKSSDSRQFSH
B3: sp¦P13804¦ETFA_HUMAN (protein, UniProt P13804 20-333, looked up)
Electron transfer …: QSTLVIAEHANDSLAPITLNTITAATRLGGEVSCLVAGTKCDKVAQDLCKVAGIAKVLVAQHDVYKGLLPEELTPLILATQKQFNYTHICAGASAFGKNLLPRVAAKLEVAPISDIIAIKSPDTFVRTIYAGNALCTVKCDEKVKVFSVRGTSFDAAATSGGSASSEKASSTSPVEISEWLDQKLTKSDRPELTGAKVVVSGGRGLKSGENFKLLYDLADQLHAAVGASRAAVDAGFVPNDMQVGQTGKIVAPELYIAVGISGAIQHLAGMKDSKTIVAINKDPEAPIFQVADYGIVADLFKVVPEMTEILKKK
B4: sp¦Q12931¦TRAP1_HUMAN (protein, UniProt Q12931 60-704, looked up)
Heat shock protein 75 kDa, …: STQTAEDKEEPLHSIISSTESVQGSTSKHEFQAETKKLLDIVARSLYSEKEVFIRELISNASDALEKLRHKLVSDGQALPEMEIHLQTNAEKGTITIQDTGIGMTQEELVSNLGTIARSGSKAFLDALQNQAEASSKIIGQFGVGFYSAFMVADRVEVYSRSAAPGSLGYQWLSDGSGVFEIAEASGVRTGTKIIIHLKSDCKEFSSEARVRDVVTKYSNFVSFPLYLNGRRMNTLQAIWMMDPKDVREWQHEEFYRYVAQAHDKPRYTLHYKTDAPLNIRSIFYVPDMKPSMFDVSRELGSSVALYSRKVLIQTKATDILPKWLRFIRGVVDSEDIPLNLSRELLQESALIRKLRDVLQQRLIKFFIDQSKKDAEKYAKFFEDYGLFMREGIVTATEQEVKEDIAKLLRYESSALPSGQLTSLSEYASRMRAGTRNIYYLCAPNRHLAEHSPYYEAMKKKDTEVLFCFEQFDELTLLHLREFDKKKLISVETDIVVDHYKEEKFEDRSPAAECLSEKETEELMAWMRNVLGSRVTNVKVTLRLDTHPAMVTVLEMGAARHFLRMQQLAKTQEERAQLLQPTLEINPRHALIKKLNQLRASEPGLAQLLVDQIYENAMIAAGLVDDPRAMVGRLNELLVKALERH
B5: sp¦P22087¦FBRL_HUMAN (protein, UniProt P22087 1-321, looked up)
rRNA 2'-O-methyltransferase …: MKPGFSPRGGGFGGRGGFGDRGGRGGRGGFGGGRGRGGGFRGRGRGGGGGGGGGGGGGRGGGGFHSGGNRGRGRGGKRGNQSGKNVMVEPHRHEGVFICRGKEDALVTKNLVPGESVYGEKRVSISEGDDKIEYRAWNPFRSKLAAAILGGVDQIHIKPGAKVLYLGAASGTTVSHVSDIVGPDGLVYAVEFSHRSGRDLINLAKKRTNIIPVIEDARHPHKYRMLIAMVDVIFADVAQPDQTRIVALNAHTFLRNGGHFVISIKANCIDSTASAEAVFASEVKKMQQENMKPQEQLTLEPYERDHAVVVGVYRPPPKVKN
B6: sp¦O00160¦MYO1F_HUMAN (protein, UniProt O00160 1-1098, looked up)
Unconventional myosin-If: MGSKERFHWQSHNVKQSGVDDMVLLPQITEDAIAANLRKRFMDDYIFTYIGSVLISVNPFKQMPYFTDREIDLYQGAAQYENPPHIYALTDNMYRNMLIDCENQCVIISGESGAGKTVAAKYIMGYISKVSGGGEKVQHVKDIILQSNPLLEAFGNAKTVRNNNSSRFGKYFEIQFSRGGEPDGGKISNFLLEKSRVVMQNENERNFHIYYQLLEGASQEQRQNLGLMTPDYYYYLNQSDTYQVDGTDDRSDFGETLSAMQVIGIPPSIQQLVLQLVAGILHLGNISFCEDGNYARVESVDLLAFPAYLLGIDSGRLQEKLTSRKMDSRWGGRSESINVTLNVEQAAYTRDALAKGLYARLFDFLVEAINRAMQKPQEEYSIGVLDIYGFEIFQKNGFEQFCINFVNEKLQQIFIELTLKAEQEEYVQEGIRWTPIQYFNNKVVCDLIENKLSPPGIMSVLDDVCATMHATGGGADQTLLQKLQAAVGTHEHFNSWSAGFVIHHYAGKVSYDVSGFCERNRDVLFSDLIELMQTSEQAFLRMLFPEKLDGDKKGRPSTAGSKIKKQANDLVATLMRCTPHYIRCIKPNETKRPRDWEENRVKHQVEYLGLKENIRVRRAGFAYRRQFAKFLQRYAILTPETWPRWRGDERQGVQHLLRAVNMEPDQYQMGSTKVFVKNPESLFLLEEVRERKFDGFARTIQKAWRRHVAVRKYEEMREEASNILLNKKERRRNSINRNFVGDYLGLEERPELRQFLGKRERVDFADSVTKYDRRFKPIKRDLILTPKCVYVIGREKVKKGPEKGQVCEVLKKKVDIQALRGVSLSTRQDDFFILQEDAADSFLESVFKTEFVSLLCKRFEEATRRPLPLTFSDTLQFRVKKEGWGGGGTRSVTFSRGFGDLAVLKVGGRTLTVSVGDGLPKSSKPTRKGMAKGKPRRSSQAPTRAAPAPPRGMDRNGVPPSARGGPLPLEIMSGGGTHRPPRGPPSTSLGASRRPRARPPSEHNTEFLNVPDQGMAGMQRKRSVGQRPVPGVGRPKPQPRTHGPRCRALYQYVGQDVDELSFNVNEVIEILMEDPSGWWKGRLHGQEGLFPGNYVEKI
B7: sp¦Q9HAV0¦GBB4_HUMAN (protein, UniProt Q9HAV0 2-340, looked up)
Guanine nucleotide-binding …: SELEQLRQEAEQLRNQIQDARKACNDATLVQITSNMDSVGRIQMRTRRTLRGHLAKIYAMHWGYDSRLLVSASQDGKLIIWDSYTTNKMHAIPLRSSWVMTCAYAPSGNYVACGGLDNICSIYNLKTREGNVRVSRELPGHTGYLSCCRFLDDSQIVTSSGDTTCALWDIETAQQTTTFTGHSGDVMSLSLSPDMRTFVSGACDASSKLWDIRDGMCRQSFTGHVSDINAVSFFPNGYAFATGSDDATCRLFDLRADQELLLYSHDNIICGITSVAFSKSGRLLLAGYDDFNCNVWDTLKGDRAGVLAGHDNRVSCLGVTDDGMAVATGSWDSFLRIWN
B8: sp¦P30044¦PRDX5_HUMAN (protein, UniProt P30044 53-214, looked up)
Peroxiredoxin-5, mitochondrial: MAPIKVGDAIPAVEVFEGEPGNKVNLAELFKGKKGVLFGVPGAFTPGCSKTHLPGFVEQAEALKAKGVQVVACLSVNDAFVTGEWGRAHKAEGKVRLLADPTGAFGKETDLLLDDSLVSIFGNRRLKRFSMVVQDGIVKALNVEPDGTGLTCSLAPNIISQL
B9: sp¦Q6NVY1¦HIBCH_HUMAN (protein, UniProt Q6NVY1 33-386, looked up)
3-hydroxyisobutyryl-CoA …: DAAEEVLLEKKGCTGVITLNRPKFLNALTLNMIRQIYPQLKKWEQDPETFLIIIKGAGGKAFCAGGDIRVISEAEKAKQKIAPVFFREEYMLNNAVGSCQKPYVALIHGITMGGGVGLSVHGQFRVATEKCLFAMPETAIGLFPDVGGGYFLPRLQGKLGYFLALTGFRLKGRDVYRAGIATHFVDSEKLAMLEEDLLALKSPSKENIASVLENYHTESKIDRDKSFILEEHMDKINSCFSANTVEEIIENLQQDGSSFALEQLKVINKMSPTSLKITLRQLMEGSSKTLQEVLTMEYRLSQACMRGHDFHEGVRAVLIDKDQSPKWKPADLKEVTEEDLNNHFKSLGSSDLKF
B10: sp¦Q9NPJ3¦ACO13_HUMAN (protein, UniProt Q9NPJ3 1-140, looked up)
Acyl-coenzyme A thioesterase …: MTSMTQSLREVIKAMTKARNFERVLGKITLVSAAPGKVICEMKVEEEHTNAIGTLHGGLTATLVDNISTMALLCTERGAPGVSVDMNITYMSPAKLGEDIVITAHVLKQGKTLAFTSVDLTNKATGKLIAQGRHTKHLGN
B11: sp¦P54687¦BCAT1_HUMAN (protein, UniProt P54687 1-386, looked up)
Branched-chain-amino-acid …: MKDCSNGCSAECTGEGGSKEVVGTFKAKDLIVTPATILKEKPDPNNLVFGTVFTDHMLTVEWSSEFGWEKPHIKPLQNLSLHPGSSALHYAVELFEGLKAFRGVDNKIRLFQPNLNMDRMYRSAVRATLPVFDKEELLECIQQLVKLDQEWVPYSTSASLYIRPTFIGTEPSLGVKKPTKALLFVLLSPVGPYFSSGTFNPVSLWANPKYVRAWKGGTGDCKMGGNYGSSLFAQCEAVDNGCQQVLWLYGEDHQITEVGTMNLFLYWINEDGEEELATPPLDGIILPGVTRRCILDLAHQWGEFKVSERYLTMDDLTTALEGNRVREMFGSGTACVVCPVSDILYKGETIHIPTMENGPKLASRILSKLTDIQYGREESDWTIVLS

These molecules were tested on human HL60 cells (assay: SWATH-MS proteomics, differential protein representation, akirin2 KO vs WT HL60 cells). Settings: SWATH-MS, akirin2 KO vs WT HL60 cells; sheet "Under-represented in KO".
Format: cell-based
Procedure, shortened: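 Read-out is label-free SWATH-MS protein area, globally normalized to total detected-protein area, with identifications held at 1% FDR against a library from information-dependent acquisition.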

Row | Molecule | Fold Change | Log (Fold Change)
1 | B1 | 0.7669 | -0.1152
2 | B2 | 0.7616 | -0.1182
3 | B3 | 0.7634 | -0.1173
4 | B4 | 0.7682 | -0.1145
5 | B5 | 0.7688 | -0.1142
6 | B6 | 0.7701 | -0.1134
7 | B7 | 0.7672 | -0.1151
8 | B8 | 0.764 | -0.1169
9 | B9 | 0.7678 | -0.1147
10 | B10 | 0.7707 | -0.1131
11 | B11 | 0.7726 | -0.112
